“Also recorded” adds a separate entry of the source.
Legend:
Atf1-G196-GFP = experiment: immunofluorescence of fission yeast cells; format: cell-based
Experimental: Yeast cells exponentially growing in YES medium at 30 °C were fixed with 3% formaldehyde and incubated at 18 °C for 30 min. After quenching with 250 mM glycine, the cells were washed with PBSEMS (PBS buffer with 1 mM EGTA, 1 mM MgSO4 and 1.2 M sorbitol), resuspended in PBSEMS containing 5 mg/mL Zymolyase 20T (07663-91, Nacalai Tesque) and 0.1% 2-mercaptoethanol, and incubated at 37 °C for 1 h. The cells were washed three times with PBSEMS and resuspended in PBSEMT (PBS with 1 mM EGTA, 1 mM MgSO4 and 1% Triton X-100) and incubated at room temperature for 30 sec. After washing three times with PBSEM (PBS with 1 mM EGTA and 1 mM MgSO4), the cells were incubated in PBSEMALM (PBS with 1 mM EGTA, 1 mM MgSO4, 0.1% sodium azide, 0.1 M L-lysine and 5% skim milk) for 30 min. The cells were resuspended in PBSEMALM containing G196 mAb (1:1000) and anti-GFP rabbit polyclonal antibody (1:1000). After overnight incubation at room temperature, cells were washed with PBSEMALM three times, then resuspended in PBSEMALM containing anti-mouse antibody conjugated with Alexa 594 (1:100) and anti-rabbit conjugated with Alexa 488 (1:100). After one-hour incubation, the cells were washed with PBSEMAL containing 5% skim milk three times and resuspended in PBS containing 0.1% sodium azide. The cell suspension was mixed with an equal amount of 1% low-melting point agarose with DAPI on glass plates.

[1] = test system: cellular proteins of HeLa cells; experiment: Western blot cross-reaction with cellular proteins; format: cell-based, human; conditions: HeLa cell extracts, Western blot (lanes 3, 4)
Source text: Short peptides and paired mAbs specific for the sequences of interest are powerful and irreplaceable tools for scientific research. To ascertain the possible versatility of G196-tag as a versatile fusion tag, we generated several human and yeast expression constructs in which the G196-tag was fused to reporter proteins. First, we expressed FLAG- and HA-tagged Emerald GFP (hereafter abbreviated FHG) as a reporter protein, C-terminally fused with a G196-tag (6P12, SDLVPRGSP) in HeLa cells.
Figure 5 Application of the G196 epitope tag system for scientific research. (a) Western blot and immunoprecipitation (IP) analysis of FLAG-HA-Emerald GFP (FHG) tagged with C-terminal G196-tag in HeLa cells using mAb G196. HeLa cells were transfected with FHG/pcDNA3 or FHG-G196/pcDNA3. After incubation for two days, the cells were lysed and subjected to Western blotting with anti-FLAG (M2) or G196 mAbs (left panel). These lysates were immunoprecipitated with anti-FLAG (M2) (lanes 7, 8) or G196 (lanes 9, 10) mAbs and subjected to Western blotting with anti-FLAG polyclonal antibody (right panel). (b) Immunofluorescence of GFP- and G196-tagged nuclear protein in HeLa cells using mAb G196. […] Protein extracts were separated by SDS-PAGE and detected with mAb G196 and anti-GFP polyclonal antibody (left panel). […] Asterisk indicates non-specific band also detected using the second Ab alone. […]

B1: mAb G196: mouse mAb (IgG1) raised against GST protein bacterially expressed using the pGEX-2T vector (antibody, V domains shown)
VH: QVKLQESGAELVKPGASVKLSCKASGYTFTNYWMHWVKLRPGQGFEWIGEINPSNGGSNYNEKFKRKATLTVDKSSSTAYMQLSSLTSEDSAVFYCSIWDSYFDYWGQGTTLTVSS
VL: NIVMTQSPKSMSMSVGERVTLTCKASENVVTYVSWYQQKPEQSPKLLIYGASNRYTGVPDRFTGSGSATDFTLTISSVQAEDLADYHCGQGYSYPYTFGGGTKLEIK
With B1 the “immunofluorescence recognition of Atf1” value (Atf1-G196-GFP; G196- and GFP-tagged Atf1, mAb 1:1000) was “recognized G196- and GFP-tagged Atf1”, the “immunofluorescence of Atf1 compared with anti-GFP polyclonal” value (Atf1-G196-GFP; versus polyclonal anti-GFP antibody) was “comparable to that of a polyclonal anti-GFP antibody” and the “cross-reaction with cellular proteins” value [1] was “did not cross-react with cellular proteins; also recorded: did not (cross-)react with cellular proteins”.

Reference: paper PMC5339894, “G196 epitope tag system: a novel monoclonal antibody, G196, recognizes the small, soluble peptide DLVPR with high affinity” (Scientific Reports, 2017)
